Data published in patent US20230265179A1 (TWIST BIOSCIENCE, published 2023).

T1: IL1RL1 over-expressed on Expi293 cells (UniProt Q01638 19-556, limits assumed)
T1 construct: whole, on cells; Target of the flow cytometry MFI ratio (over-expressing cells over parent cells); also called cytokine over-expressing Expi293 cells
T1 sequence (looked up): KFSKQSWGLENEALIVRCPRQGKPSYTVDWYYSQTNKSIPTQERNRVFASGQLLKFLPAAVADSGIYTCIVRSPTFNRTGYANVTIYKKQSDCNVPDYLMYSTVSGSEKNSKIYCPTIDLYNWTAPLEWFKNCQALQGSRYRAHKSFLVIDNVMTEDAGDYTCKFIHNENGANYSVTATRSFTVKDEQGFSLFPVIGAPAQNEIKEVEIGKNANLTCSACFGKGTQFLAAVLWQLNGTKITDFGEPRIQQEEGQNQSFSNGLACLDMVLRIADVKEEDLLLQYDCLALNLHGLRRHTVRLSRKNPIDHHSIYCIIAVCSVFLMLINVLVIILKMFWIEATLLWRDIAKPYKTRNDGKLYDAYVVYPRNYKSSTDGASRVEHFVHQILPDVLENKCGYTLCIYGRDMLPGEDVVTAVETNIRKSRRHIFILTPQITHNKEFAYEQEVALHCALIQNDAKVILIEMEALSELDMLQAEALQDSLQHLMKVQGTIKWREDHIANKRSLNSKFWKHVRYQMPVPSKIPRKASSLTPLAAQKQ

T2: IL1RL1 (UniProt Q01638 19-328, limits assumed)
T2 construct: SPR analyte
T2 sequence (looked up): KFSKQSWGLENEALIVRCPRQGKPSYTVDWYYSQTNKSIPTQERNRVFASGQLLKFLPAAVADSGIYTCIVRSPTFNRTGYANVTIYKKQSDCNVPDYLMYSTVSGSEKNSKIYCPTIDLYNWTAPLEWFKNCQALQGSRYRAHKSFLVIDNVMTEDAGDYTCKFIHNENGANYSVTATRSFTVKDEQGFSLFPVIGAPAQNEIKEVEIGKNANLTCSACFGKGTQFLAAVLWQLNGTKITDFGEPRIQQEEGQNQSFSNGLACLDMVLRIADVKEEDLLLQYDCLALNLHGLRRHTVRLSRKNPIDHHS

T3: IL1RL2 over-expressed on Expi293 cells (UniProt Q9HB29 20-575, limits assumed)
T3 construct: whole, on cells; Target of the flow cytometry assay; MFI ratio is over-expressing cells over parent cells
T3 sequence (looked up): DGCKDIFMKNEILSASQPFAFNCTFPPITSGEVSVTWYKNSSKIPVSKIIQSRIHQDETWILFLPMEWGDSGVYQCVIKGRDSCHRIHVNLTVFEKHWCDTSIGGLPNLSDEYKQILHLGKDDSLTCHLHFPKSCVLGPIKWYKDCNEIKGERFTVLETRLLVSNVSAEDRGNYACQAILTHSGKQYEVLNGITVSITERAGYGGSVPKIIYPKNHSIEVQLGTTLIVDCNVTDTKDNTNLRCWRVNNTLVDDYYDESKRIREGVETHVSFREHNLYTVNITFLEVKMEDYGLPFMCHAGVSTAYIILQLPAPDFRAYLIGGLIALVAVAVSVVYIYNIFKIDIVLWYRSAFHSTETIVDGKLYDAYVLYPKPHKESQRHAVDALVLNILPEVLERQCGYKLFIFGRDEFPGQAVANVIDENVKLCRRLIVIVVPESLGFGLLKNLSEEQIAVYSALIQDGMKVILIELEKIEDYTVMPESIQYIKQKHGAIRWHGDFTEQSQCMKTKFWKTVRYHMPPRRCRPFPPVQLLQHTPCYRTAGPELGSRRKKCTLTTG


What was measured:
[1] = target: T1, IL1RL1 over-expressed on Expi293 cells; experiment: flow cytometry, 100 nM antibody, over-expressing Expi293 / parent cells
Procedure: (§1) All incubations and washes were in buffer containing PBS+1% BSA. MFI Ratio is defined by the mean fluorescence intensity (MFI) of the cytokine over-expressing Expi293 cell over the Expi293 parent cell. […] EC50 was calculated in GraphPad Prism.

IL1RL1 = target: T2, IL1RL1; experiment: SPR (Carterra LSA), antibody amine-coupled, 1:1 model;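 note: HC30M sensor chip at 25 °C in HBS-TE, analyte at rising concentrations in buffer containing 0.5 mg/mL BSA, 5 min association then 15 min dissociation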
[2] = target: T3, IL1RL2 over-expressed on Expi293 cells; experiment: flow cytometry, over-expressing Expi293 vs parent cells, 100 nM antibody;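 note: ratio is mean fluorescence intensity on over-expressing Expi293 cells divided by that measured on parental Expi293 cells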
Procedure: as §1

Binder | 100 nM FACS (MFI Ratio) [1] [MFI ratio] | Kd (IL1RL1) [nM] | koff (IL1RL1) [s⁻¹] | kon (IL1RL1) [M⁻¹ s⁻¹] | 100 nM FACS (MFI Ratio) [2]
IL1RL1-54 (Fc fusion, not shown: a dimerising Fc or GST, VHH-Fc on IgG2 Fc) VHH: EVQLVESGGGLVQPGGSLRLSCAASGNIPPINAMGWFRQAPGKEREWVASISTSGSTITPYADSVKGRFTISADNSKNTAYLQMNSLKPEDTAVYYCAARSGWSGQYDWGQGTLVTVSS | 500 | 0.516 | 9.06e-05 | 176000 | –
IL1RL1-25 (Fc fusion, not shown: a dimerising Fc or GST, VHH-Fc on IgG2 Fc) VHH: EVQLVESGGGLVQPGGSLRLSCAASGGTFNGRAMGWFRQAPGKEREGVATINSGGGTNYADSVKGRFTISADNSKNTAYLQMNSLKPEDTAVYYCALRRLSPPPLLDWGQGTLVTVSS | 69.5 | 1.47 | 0.000392 | 267000 | –
IL1RL1-27 (Fc fusion, not shown: a dimerising Fc or GST, VHH-Fc on IgG2 Fc) VHH: EVQLVESGGGLVQPGGSLRLSCAASGGTISTYAIGWFRQAPGKEREGVAAISPGNNTHYADSVKGRFTISADNSKNTAYLQMNSLKPEDTAVYYCAARPVRVDDISLPVGFDWGQGTLVTVSS | 450 | 3.7 | 0.000372 | 101000 | –
IL1RL1-89 (Fc fusion, not shown: a dimerising Fc or GST, VHH-Fc on IgG2 Fc) VHH: EVQLVESGGGLVQPGGSLRLSCAASGSIYSLVAMGWFRQAPGKEREAVAGIVSGGSTSYADSVKGRFTISADNSKNTAYLQMNSLKPEDTAVYYCAAVGGATTVTASEWDWGQGTLVTVSS | 340 | 0.781 | 0.000388 | 496000 | –
IL1RL1-73 (Fc fusion, not shown: a dimerising Fc or GST, VHH-Fc on IgG2 Fc) VHH: EVQLVESGGGLVQPGGSLRLSCAASGDISSIVAMGWFRQAPGKEREWVSSIGIAGTPTFYADSVKGRFTISADNSKNTAYLQMNSLKPEDTAVYYCAGRSIGVDDMPYVWGQGTLVTVSS | 463 | 2.06 | 0.000362 | 176000 | –
IL1RL1-63 (Fc fusion, not shown: a dimerising Fc or GST) VHH: EVQLVESGGGLVQPGGSLRLSCAASGRTLSSIYAMGWFRQAPGKEREGVAAIYSGGITTYADSVKGRFTISADNSKNTAYLQMNSLKPEDTAVYYCAAFDGYSGSDWGQGTLVTVSS | 451 | 0.153 | 3.16e-05 | 207000 | –
IL1RL1-91 (Fc fusion, not shown: a dimerising Fc or GST) VHH: EVQLVESGGGLVQPGGSLRLSCAASGGTFGSYAMGWFRQAPGKEREGVAAIYTGGITTYADSVKGRFTISADNSKNTAYLQMNSLKPEDTAVYYCAAFDGYSGSDWGQGTLVTVSS | 475 | 1.85 | 0.000261 | 141000 | –
IL1RL1-47 (Fc fusion, not shown: a dimerising Fc or GST, VHH-Fc on IgG2 Fc) VHH: EVQLVESGGGLVQPGGSLRLSCAASGRTFSMGWFRQAPGKEREWVASISTSGSTITPYADSVKGRFTISADNSKNTAYLQMNSLKPEDTAVYYCAAQGSLYDDYDGLPIKYDWGQGTLVTVSS | 467 | 4.73 | 0.00031 | 65600 | –
IL1RL1-40 (Fc fusion, not shown: a dimerising Fc or GST, VHH-Fc on IgG2 Fc) VHH: EVQLVESGGGLVQPGGSLRLSCAASGRTFSDYVMGWFRQAPGKEREIVAAIAWTGTTDYADSVKGRFTISADNSKNTAYLQMNSLKPEDTAVYYCAARIRGKVTVDNFDYAWGQGTLVTVSS | 415 | 7.31 | 0.00116 | 159000 | –
IL1RL2-3 (VHH, VHH-Fc based on IgG2 Fc) VHH: EVQLVESGGGLVQPGGSLRLSCAASGRTVSTMGWFRQAPGKEREWVSTITFNGDHTYYADSVKGRFTISADNSKNTAYLQMNSLKPEDTAVYYCAKAYSSSWPYFDYWGQGTLVTVSS | – | – | – | – | 1.97
